Source: PMC10320015, “Structural insights into CED-3 activation” (Life Science Alliance, 2023)

B2: CED-4 apoptosome (natural protein, C. elegans)
chain: MLCEIECRALSTAHTRLIHDFEPRDALTYLEGKNIFTEDHSELISKMSTRLERIANFLRIYRRQASELGPLIDFFNYNNQSHLADFLEDYIDFAINEPDLLRPVVIAPQFSRQMLDRKLLLGNVPKQMTCYIREYHVDRVIKKLDEMCDLDSFFLFLHGRAGSGKSVIASQALSKSDQLIGINYDSIVWLKDSGTAPKSTFDLFTDILLMLKSEDDLLNFPSVEHVTSVVLKRMICNALIDRPNTLFVFDDVVQEETIRWAQELRLRCLVTTRDVEISNAASQTCEFIEVTSLEIDECYDFLEAYGMPMPVGEKEEDVLNKTIELSSGNPATLMMFFKSCEPKTFEKMAQLNNKLESRGLVGVECITPYSYKSLAMALQRCVEVLSDEDRSALAFAVVMPPGVDIPVKLWSCVIPVDICSNEEEQLDDEVADRLKRLSKRGALLSGKRMPVLTFKIDHIIHMFLKHVVDAQTIANGISILEQRLLEIGNNNVSVPERHIPSHFQKFRRSSASEMYPKTTEETVIRPEDFPKFMQLHQKFYDSLKNFACC
notes: CED-4, C. elegans; also called CED-4b; CED-4c; source: recombinantly expressed, obtained as previously reported (Qi et al, 2010), purified (SEC)

Key:
CED-4 apoptosome [1] = molecular target: B2; assay: cryo-EM structure; CED-4/CED-3 catalytic complex: CED-4 incubated with CED-3 (198-503, C358A), assembled at 4°C for 1 h, purified by SEC in 20 mM HEPES pH 7.5, 10 mM KCl, 1.5 mM MgCl2, 1 mM EDTA, 1 mM DTT; about 2 uM; details: both partners purified
[2] = molecular target: the molecule itself; assay: cryo-EM structure; CED-4/CED-3_CARD complex, assembled at 4°C for 1 h, purified by SEC in 20 mM HEPES pH 7.5, 10 mM KCl, 1.5 mM MgCl2, 1 mM EDTA, 1 mM DTT; about 2 uM
[3] = molecular target: the molecule itself; assay: cryo-EM structure; holoenzyme: ternary complex of CED-4, CED-3 CARD and CED-3 catalytic domain, assembled at 4°C for 1 h, purified by SEC in 20 mM HEPES pH 7.5, 10 mM KCl, 1.5 mM MgCl2, 1 mM EDTA, 1 mM DTT; about 2 uM
[4] = molecular target: the molecule itself; assay: cryo-EM structure; CED-4 apoptosome alone (Apo dataset), low-salt sample, about 2 uM; 3D classification and refinement
CED-4 apoptosome [5] = molecular target: B2; assay: cryo-EM structure; CED-4/CED-3_CARD complex, assembled at 4°C for 1 h, purified by SEC in 20 mM HEPES pH 7.5, 10 mM KCl, 1.5 mM MgCl2, 1 mM EDTA, 1 mM DTT; about 2 uM; details: both partners purified

B1: CED-3 catalytic mutant (198–503, C358A) (domain or fragment, C. elegans, UniProt P42573 198-503, looked up)
chain: NRSFSKASGPTQYIFHEEDMNFVDAPTISRVFDEKTMYRNFSSPRGMCLIINNEHFEQMPTRNGTKADKDNLTNLFRCMGYTVICKDNLTGRGMLLTIRDFAKHESHGDSAILVILSHGEENVIIGVDDIPISTHEIYDLLNAANAPRLANKPKIVFVQAARGERRDNGFPVLDSVDGVPAFLRRGWDNRDGPLFNFLGCVRPQVQQVWRKKPSQADILIAYATTAQYVSWRNSARGSWFIQAVCEVFSTHAKDMDVVELLTEVNKKVACGFQTSQGSNILKQMPEMTSRLLKKFYFWPEARNSAV
notes: CED-3 catalytic domain, C. elegans, residues 198-503; also called CED-3 catalytic domain; catalytic mutant (C358A); source: expressed and purified as described previously (Huang et al, 2013)
CED-4 apoptosome [1]
  binding result: binds

## B2
[2]
  stoichiometry N: 8
[3]
  stoichiometry N: 6
[4]
  stoichiometry N: 7

B3: WT CED-3 CARD (domain or fragment, C. elegans, UniProt P42573 1-91, looked up)
chain: MMRQDRRSLLERNIMMFSSHLKVDEILEVLIAKQVLNSDNGDMINSCGTVREKRREIVKAVQRRGDVAFDAFYDALRSTGHEGLAEVLEPL
notes: CED-3 CARD (caspase recruitment domain), C. elegans; source: E. coli BL21 (DE3), purified (Ni-NTA, Source-15Q anion exchange)
CED-4 apoptosome [5]
  stoichiometry N: 4 CED-3 CARDs per octameric CED-4 apoptosome
